Measurements from patent US20240025971A1.

Tests used:
[1] = biological target: SARS-CoV-2 Wuhan-1 full-length Spike protein (SARS-CoV-2) (UniProt P0DTC2); assay: cell-based or functional assay
[2] = biological target: SARS-CoV-1 spike (pseudovirus) (SARS-CoV-1) (UniProt P59594); assay: cell-based or functional assay
[3] = biological target: SARS-CoV-2 Spike (S) trimer (SARS-CoV-2) (UniProt P0DTC2); assay: ELISA, S trimer coated, 1:50 dilution

| Substance | Pseudovirus Neutralization [1] [µg/mL] | Pseudovirus Neutralization [2] [µg/mL] | Optical Density (OD; 450 nm) [3] [OD450] |
| --- | --- | --- | --- |
| Anti-Nucleocapsid (Neg Control) (antibody) | > 50 | > 50 |  |
| CA-1 (AB-009265) (antibody) |  |  | 2.74 |
| CB-6 (AB-009264) (antibody) |  |  | 2.81 |
